Measurements from patent publication US20130266958A1 (INTERNATIONAL INSTITUTE OF CANCER IMMUNOLOGY, published 2013).

Key:
Assay in all cases: HPLC folding test (Superdex 200), HLA class II monomer protein with 50-fold molar peptide, against solvent only
[1] = target: T1, HLA class II monomer protein DRB1* 1501 (human)
T1 construct: Soluble MHC class II monomer protein used in the HPLC folding test; also called HLA-DRB1* 1501 molecule
Protocol: (§1) After reacting the solution at 37° C., the retention time was analyzed using HPLC.
(§2) As a folding buffer, a 10% amount of a mixed solution of an HLA class II monomer protein and a peptide was added. The amount of the folding buffer added was calculated using the following calculation equation.
(§3) To a glass vial charged with an HLA class II monomer protein, a peptide solution and a folding buffer were added in a calculated amount, and the mixture was allowed to stand at 37° C. overnight. HPLC (Waters 2695 Separation Module) was started, and a Seperdex 200 column was equilibrated with an equilibrating buffer. To all samples, 300 μL of the equilibrate buffer was added and well mixed, and a 100 μL portion of the mixture was used as a sample injection volume to calculate the retention time. Analysis time was 50 minutes. The criterion for the folding of an HLA class II monomer protein with a peptide is a shift of the retention time of not less than 0.1 minute as compared with a control (solvent only).

[2] = target: T2, HLA class II monomer protein DRB1* 1502 (human)
T2 construct: Soluble MHC class II monomer protein used in the HPLC folding test; also called HLA-DRB1* 1502 molecule
Protocol: as §1, §2, §3

[3] = target: T3, HLA class II monomer protein DRB1* 0803 (human)
T3 construct: Soluble MHC class II monomer protein used in the HPLC folding test; also called HLA-DRB1* 0803 molecule
Protocol: as §1, §2, §3

[4] = target: T4, HLA class II monomer protein DRB1* 0901 (human)
T4 construct: Soluble MHC class II monomer protein used in the HPLC folding test; also called HLA-DRB1* 0901 molecule
Protocol: as §1, §2, §3

[5] = target: T5, HLA class II monomer protein DRB1* 0101 (human)
T5 construct: Soluble MHC class II monomer protein used in the HPLC folding test
Protocol: as §1, §2, §3

[6] = target: T6, HLA class II monomer protein DRB1* 0405 (human)
T6 construct: Soluble MHC class II monomer protein used in the HPLC folding test
Protocol: as §1, §2, §3

[7] = target: T7, HLA class II monomer protein DRB4* 0101 (human)
T7 construct: Soluble MHC class II monomer protein used in the HPLC folding test
Protocol: as §1, §2, §3

Measured: degree of shift of the retention time

B1: WT1-332 (a peptide consisting of the amino acid sequence depicted in SEQ ID NO:2) (peptide)
peptide: KRYFKLSHLQMHSRKH
notes: Synthetic peptide; part of human WT1 protein; also called WT1 peptide
≥ 0.1 min: [1] | [2] | [3] | [4] | [5] | [6] | [7]
